Blank lines part the entries; values can stand above or below the binder they belong to.
How the values were obtained:
[1] = biological target: T1, His-tagged CD47 recombinant protein, CD47-His (human, UniProt Q08722 19-141, limits assumed); assay: BLI (Octet Red 96), antibody on AHC sensor, CD47-His 100 nM
T1 construct: it is not restated for CD47-His; also called human CD47-His protein; antigen CD47-His; not shown: His tag

[2] = biological target: T1, His-tagged CD47 recombinant protein, …; assay: ELISA on coated CD47-His; Ab 0 nM (background)
Description: (§1) The plate was sealed with plastic film and incubated at 4° C. overnight. The plate was washed twice with plate washing solution [PBS+0.01% (v/v) Tween20] the next day, and blocking solution [PBS+0.01% (v/v) Tween20 +1% (w/w) BSA] was added to block it at room temperature for 2 hours. […] After incubation at 37° C. for 2 hours, the plates were washed three times with plate washing solution [PBS+0.01% (v/v) Tween 20]. HRP (horseradish peroxidase) labeled secondary antibody (purchased from Sigma) was added, incubated at 37° C. for 2 hours, and then washed three times with plate washing solution [PBS+0.01% (v/v) Tween 20]. 1000 of TMB substrate was added to each well. After incubated at room temperature for 30 minutes, the plate was added with 100 μl of stop solution (1.0N HCl) to each well.

[3] = biological target: T2, cynomolgus CD47, on CHOK1-cCD47 stable cell line (cynomolgus); assay: FACS CHOK1-cCD47; Ab 8 nM
T2 construct: whole, on cells; check before use; also called CHOK1/cynoCD47; monkey-derived CD47

[4] = biological target: T3, human CD47, full length, on transfected cells (human, UniProt Q08722 19-323); assay: FACS CHOK1-hCD47; Ab 200 nM
T3 construct: whole, on cells; also called CHOK1-hCD47
Description: (§2) The CHOK1-hCD47 stable cell lines and CHOK1-cCD47 stable cell lines were expanded to 90% confluence in a T-75 cell culture flask, the medium was exhausted, washed twice with HBSS buffer (Hanks balanced salt solution) (purchased from Invitrogen), and then treated and collected with enzyme-free cell dissociation solution (Versene solution: purchased from Life technology). The cells were washed twice with HBSS buffer. After counted, the cells were diluted with HBSS to 2×10⁶ cells per ml, added with 1% goat serum blocking solution, wherein the percentage was the mass percantage, incubated on ice for 30 minutes, and then washed twice with HBSS by centrifugation. […] The plate was washed 3 times with FACS buffer by centrifugation, added with 100 μl fixative solution [4% (v/v) Paraformaldehyde] per well to suspend the cells. 10 minutes later, it was washed twice with FACS buffer by centrifugation. The cells were suspended with 100 microliters of FACS buffer, FACS (FACS Calibur, purchased from BD) was used for detection and the results were analyzed.

[5] = biological target: T3, human CD47, full length, on transfected …; assay: FACS CHOK1-hCD47; Ab 0 nM (background)
Description: as §2

[6] = biological target: T4, biotin-labeled CD47 extracellular domain protein (CD47-ECD) (UniProt Q08722 19-139, limits assumed, biotin-labeled (sites not given)); assay: blocking ELISA, biotin-CD47-ECD on coated SIRPα-hFc; Ab 0 nM
T4 construct: extracellular domain; also called CD47 protein

[7] = biological target: T4, biotin-labeled CD47 extracellular …; assay: blocking ELISA, biotin-CD47-ECD on coated SIRPα-hFc; Ab 0.32 nM
Description: (§3) The plate was sealed with plastic film and incubated at 4° C. overnight. The plate was washed twice with plate washing solution [PBS+0.01% (v/v) Tween20] on the next day, and blocking solution [PBS+0.01% (v/v) Tween20 +1% (w/w) BSA] was added to block it at room temperature for 2 hours. […] After incubation at 37° C. for 2 hours, the plate was washed three times with the plate washing solution [PBS+0.01% (v/v) Tween 20]. HRP (horseradish peroxidase) labeled avidin diluent (purchased from Sigma) was added as 100 microliters per well, and after the plate was incubated for 2 hours at 37° C., it was washed 3 times with washing solution [PBS+0.01% (v/v) Tween 20]. 100 μl of TMB substrate was added to each well. After incubated at room temperature for 30 minutes, the plate was added with 100 μl of stop solution (1.0N HCl) to each well.

[8] = biological target: T4, biotin-labeled CD47 extracellular …; assay: blocking ELISA, biotin-CD47-ECD on coated SIRPα-hFc; Ab 8 nM
Description: as §3

[9] = biological target: T3, human CD47, full length, on transfected …; assay: FACS CHOK1-hCD47; Ab 1.6 nM
Description: as §2

[10] = biological target: T1, His-tagged CD47 recombinant protein, …; assay: ELISA on coated CD47-His; Ab 0.004 nM
Description: as §1

[11] = biological target: T1, His-tagged CD47 recombinant protein, …; assay: ELISA on coated CD47-His; Ab 0.021 nM
[12] = biological target: T3, human CD47, full length, on transfected …; assay: FACS CHOK1-hCD47; Ab 40 nM
Description: as §2

[13] = biological target: T1, His-tagged CD47 recombinant protein, …; assay: ELISA on coated CD47-His; Ab 13.333 nM
[14] = biological target: T1, His-tagged CD47 recombinant protein, …; assay: ELISA on coated CD47-His; Ab 66.667 nM
Description: as §1

[15] = biological target: T2, cynomolgus CD47, on CHOK1-cCD47 stable …; assay: FACS CHOK1-cCD47; Ab 0.0128 nM
[16] = biological target: T4, biotin-labeled CD47 extracellular …; assay: blocking ELISA, biotin-CD47-ECD on coated SIRPα-hFc; Ab 1.6 nM
Description: as §3

[17] = biological target: T4, biotin-labeled CD47 extracellular …; assay: blocking ELISA, biotin-CD47-ECD on coated SIRPα-hFc; Ab 0.064 nM
[18] = biological target: T2, cynomolgus CD47, on CHOK1-cCD47 stable …; assay: FACS CHOK1-cCD47; Ab 40 nM
[19] = biological target: T4, biotin-labeled CD47 extracellular …; assay: blocking ELISA, biotin-CD47-ECD on coated SIRPα-hFc; Ab 0.0128 nM
[20] = biological target: T1, His-tagged CD47 recombinant protein, …; assay: ELISA on coated CD47-His; Ab 2.667 nM
Description: as §1

[21] = biological target: T4, biotin-labeled CD47 extracellular …; assay: blocking ELISA, biotin-CD47-ECD on coated SIRPα-hFc; Ab 200 nM
[22] = biological target: T3, human CD47, full length, on transfected …; assay: FACS CHOK1-hCD47; Ab 0.0128 nM
Description: as §2

[23] = biological target: T3, human CD47, full length, on transfected …; assay: FACS CHOK1-hCD47; Ab 8 nM
Description: as §2

[24] = biological target: T2, cynomolgus CD47, on CHOK1-cCD47 stable …; assay: FACS CHOK1-cCD47; Ab 0 nM (background)
Description: as §2

[25] = biological target: T3, human CD47, full length, on transfected …; assay: FACS CHOK1-hCD47; Ab 0.064 nM
Description: as §2

[26] = biological target: T4, biotin-labeled CD47 extracellular …; assay: blocking ELISA, biotin-CD47-ECD on coated SIRPα-hFc; Ab 40 nM
Description: as §3

[27] = biological target: T2, cynomolgus CD47, on CHOK1-cCD47 stable …; assay: FACS CHOK1-cCD47; Ab 200 nM
Description: as §2

[28] = biological target: T1, His-tagged CD47 recombinant protein, …; assay: ELISA on coated CD47-His; Ab 0.107 nM
Description: as §1

[29] = biological target: T1, His-tagged CD47 recombinant protein, …; assay: ELISA on coated CD47-His; Ab 0.533 nM
[30] = biological target: T2, cynomolgus CD47, on CHOK1-cCD47 stable …; assay: FACS CHOK1-cCD47; Ab 0.32 nM
Description: as §2

[31] = biological target: T2, cynomolgus CD47, on CHOK1-cCD47 stable …; assay: FACS CHOK1-cCD47; Ab 1.6 nM
Description: as §2

[32] = biological target: T2, cynomolgus CD47, on CHOK1-cCD47 stable …; assay: FACS CHOK1-cCD47; Ab 0.064 nM
Description: as §2

[33] = biological target: T3, human CD47, full length, on transfected …; assay: FACS CHOK1-hCD47; Ab 0.32 nM
Description: as §2

B1: c51E2F11 (antibody, V domains shown)
VH: EVQLQQSGAELVKPGASVKLSCTASGFNIKDHYIHWMNQRTEQGLEWIGRIDPDDGETRYAPKFRGKATLTADTSSNTAYLQFSSLTSEDTAVYHCTRATTITRDWYFDVWGTGTTVTVSS
VL: DIVMTQSQKFMSTSVGDRVSITCKASQNVRTSVAWYQQKPGQSPKALIYLASNRHTGIPDRFTGSGSGTDFTLTIRNVQSEDLADYFCLQHWDYPLTFGAGTKLELK
Kd [1]: 2.41 nM
koff [1]: 0.00103 s⁻¹
kon [1]: 428000 M⁻¹ s⁻¹

B4: c20H4G5 (antibody, V domains shown)
VH: QVQLQQPGAELVRPGSSVRLSCVTSGYTFTSHWMHWVKQGPIKGLEWIGNIDPSDSETHYNQKFKDKATLTVDKSSSTAYMQLSRLTSDDSAVYYCARWRHLGIGAMDYWGQGTSVIVSS
VL: DVQITQSPSYLAASPGETITINCRASKNISKFLAWYQAKPGKSNNLLIYSGSTLQSGIPSRFSGSGSGTDFTLTISRLEPEDFAMYYCQQHNEYPWTFGGGTKLEIK
Kd [1]: 0.695 nM
koff [1]: 0.000202 s⁻¹
kon [1]: 290000 M⁻¹ s⁻¹

B5: 4D10B11 (antibody, V domains shown)
VH: QVQLQQSGPELVKPGASVKISCKASGYSFTSYYIHWVKQRPGQGLEWIGWIYPGSGNTKYNEKFKGKATLTADTSSSTADMQLSSLTSEDSAVYYCARRGDWYFDVWGTGTTVTVSS
VL: DIVMSQSPSSLVVSVGEKVTMNCKSSQSLLFSGNQKSSLAWYQQKPGQSPKLLIYWASTRESGVPDRFTGSGSGTDFTLIISTVKAEDLAVYSCQQYYSYPLTFGAGTKLELK
notes: Murine hybridoma antibody purified on protein G
OD450 nm [2]: 0.05
mean fluorescence intensity [3]: 12100
mean fluorescence intensity [4]: 10500
mean fluorescence intensity [5]: 21.9
OD450 nm of CD47 bound to SIRPα [6]: 2.84
OD450 nm of CD47 bound to SIRPα [7]: 0.77
OD450 nm of CD47 bound to SIRPα [8]: 0.06
mean fluorescence intensity [9]: 4850
OD450 nm [10]: 0.18
OD450 nm [11]: 0.69
mean fluorescence intensity [12]: 8900
OD450 nm [13]: 2.91
OD450 nm [14]: 2.91
mean fluorescence intensity [15]: 218
OD450 nm of CD47 bound to SIRPα [16]: 0.15
OD450 nm of CD47 bound to SIRPα [17]: 2.45
mean fluorescence intensity [18]: 13900
OD450 nm of CD47 bound to SIRPα [19]: 2.76
OD450 nm [20]: 3.03
OD450 nm of CD47 bound to SIRPα [21]: 0.06
mean fluorescence intensity [22]: 113
mean fluorescence intensity [23]: 8450
mean fluorescence intensity [24]: 75.5
mean fluorescence intensity [25]: 480
OD450 nm of CD47 bound to SIRPα [26]: 0.06
mean fluorescence intensity [27]: 8870
OD450 nm [28]: 2.13
OD450 nm [29]: 2.94
mean fluorescence intensity [30]: 2540
mean fluorescence intensity [31]: 7190
mean fluorescence intensity [32]: 667
mean fluorescence intensity [33]: 1710

B6: c4D10B11 (antibody, V domains shown)
VH: QVQLQQSGPELVKPGASVKISCKASGYSFTSYYIHWVKQRPGQGLEWIGWIYPGSGNTKYNEKFKGKATLTADTSSSTADMQLSSLTSEDSAVYYCARRGDWYFDVWGTGTTVTVSS
VL: DIVMSQSPSSLVVSVGEKVTMNCKSSQSLLFSGNQKSSLAWYQQKPGQSPKLLIYWASTRESGVPDRFTGSGSGTDFTLIISTVKAEDLAVYSCQQYYSYPLTFGAGTKLELK
Kd [1]: 1.06 nM
koff [1]: 0.000284 s⁻¹
kon [1]: 268000 M⁻¹ s⁻¹

Continued by falling Kd [1], values first:

Kd [1]: 3.7 nM
koff [1]: 0.000867 s⁻¹
kon [1]: 234000 M⁻¹ s⁻¹
B2: c25E3B5 (antibody, V domains shown)
VH: QVQLQQPGTALVRPGSSVKLSCKASGYTFTSYWMHWVRQRPIKGLEWIGNIDPSDSETHYNQRFKDKVTLTVDKSSNTAYMQLSSLTSEDSAVYYCARWKYHGIGAMDYWGQGTSVTVSS
VL: DVQITQSPSYLAASPGETVTISCRTNRNISKFLAWYQEKPGKTNKLLIYSGSTLHSGIPSRFSGSGSGTDFTLTISRLEPEDFAMYYCQQHNEYPWSFGGGTKLEIK

Kd [1]: 1.39 nM
koff [1]: 0.000478 s⁻¹
kon [1]: 343000 M⁻¹ s⁻¹
B7: c54G8G6 (antibody, V domains shown)
VH: QVQLQQPGADLVKPGASVKMSCKASGYTFTSYWIIWVKQRPGQGLEWIGDINPGRGSPNYNEKFKRKATLTVDTSSSTAYMQLSSLTSEDSAVYYCVRGGLRRFDHWGQGTLVTVSA
VL: ENVLTQSPAIMSASPGEKVTMTCRASSSVSSSYLHWYQQKSGASPKLWIYSTSTLASGVPARFSGSGSGTSYSLTISSVEAEDAATYYCQQYSGYPYTFGGGTKLEIK

Kd [1]: 0.982 nM
koff [1]: 0.000362 s⁻¹
kon [1]: 369000 M⁻¹ s⁻¹
B3: c132D1E5 (antibody, V domains shown)
VH: QVQLQQPGAELVRPGSSVKLSCKASGYTFTNNWMHWVKQRPLQGLEWIGNIDPSDSETHYNQKFKDKATLTVDKSSTTAYIQLSSLTSEDSAVYYCARWRGGGRGAMDYWGQGTSVTVSS
VL: DVQITQSPSYLAASPGETITINCRTSKNISKFLAWYQEKPGKTNKLLIYSGSTLQSGIPSRFSGSGSGTDFTLTISNLEPEDFAMYYCQQHNEYPWTFGRGTKLEIK
